Assays:
[1] = molecular target: plasma purified human antithrombin III (AT-III), as complex with unfractionated heparin; experiment: ratio of K0.5 (lower limit) to Catalyst Biosciences WT FIXa, AT-III/UFH inhibition
[2] = molecular target: plasma purified human AT-III (antithrombin III); experiment: AT-III/UFH inhibition K0.5, ratio to Catalyst Biosciences WT FIXa

Chain of Factor X, P00742 (P00742 whole entry, looked up): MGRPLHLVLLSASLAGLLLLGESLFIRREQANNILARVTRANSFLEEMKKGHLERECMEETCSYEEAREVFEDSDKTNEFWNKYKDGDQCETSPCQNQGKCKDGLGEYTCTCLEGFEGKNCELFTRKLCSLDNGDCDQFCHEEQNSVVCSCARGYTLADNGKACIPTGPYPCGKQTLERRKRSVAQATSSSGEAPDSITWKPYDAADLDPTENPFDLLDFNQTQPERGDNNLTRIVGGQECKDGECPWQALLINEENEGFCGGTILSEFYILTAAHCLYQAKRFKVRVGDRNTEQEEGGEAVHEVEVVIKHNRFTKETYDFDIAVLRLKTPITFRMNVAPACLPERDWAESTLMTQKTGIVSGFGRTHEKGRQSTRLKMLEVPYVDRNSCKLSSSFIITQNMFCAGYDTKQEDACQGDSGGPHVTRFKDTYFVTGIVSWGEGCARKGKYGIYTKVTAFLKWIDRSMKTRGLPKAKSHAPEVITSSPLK
Chain of Factor X (FX), P00742 (P00742 whole entry, looked up): as above

Protein | K0.5-mut/K0.5-wt [1] | K0.5-mut/K0.5-wt [2] | % of WT kcat/KM (Factor X, P00742) [%] | KM (Factor X, P00742) [µM] | kcat/KM (Factor X, P00742) [M⁻¹ s⁻¹] | % of WT kcat/KM (Factor X (FX), P00742) [%] | kcat (Factor X (FX), P00742) [s⁻¹] | kcat/KM (Factor X (FX), P00742) [M⁻¹ s⁻¹] | KM (Factor X (FX), P00742) [µM] | kcat of FX activation by FIXa (Xase complex with FVIIIa, PC/PS vesicles, Ca2+) (Factor X (FX), P00742) [s⁻¹] | KM (FX activation by FIXa in the Xase complex with FVIIIa, PC/PS vesicles and Ca2+) (Factor X (FX), P00742) [µM]
FIXa-Y155F/K228N/R318Y/R338E/R403E/E410N (protein) chain 1: YNSGKLEEFVQGNLERECMEEKCSFEEAREVFENTERTTEFWKQYVDGDQCESNPCLNGGSCKDDINSYECWCPFGFEGKNCELDVTCNIKNGRCEQFCKNSADNKVVCSCTEGYRLAENQKSCEPAVPFPCGRVSVSQTSKLTR chain 2: VVGGEDAKPGQFPWQVVLNGKVDAFCGGSIVNEKWIVTAAHCVETGVNITVVAGEHNIEETEHTEQKRNVIRIIPHHNYNAAINKYNHDIALLELDEPLVLNSYVTPICIADKEYTNIFLKFGSGYVSGWGRVFHKGYSALVLQYLRVPLVDRATCLESTKFTIYNNMFCAGFHEGGRDSCQGDSGGPHVTEVEGTSFLTGIISWGEECAMKGKYGIYTKVSEYVNWIKNKTKLT | 517 | > 517 | 453 | 0.048 | 2e+08 | 356 | 9.7 | 1.6e+08 | – | – | –
FIXa-R318Y/R338E/R403E/T412A (protein) chain 1: YNSGKLEEFVQGNLERECMEEKCSFEEAREVFENTERTTEFWKQYVDGDQCESNPCLNGGSCKDDINSYECWCPFGFEGKNCELDVTCNIKNGRCEQFCKNSADNKVVCSCTEGYRLAENQKSCEPAVPFPCGRVSVSQTSKLTR chain 2: VVGGEDAKPGQFPWQVVLNGKVDAFCGGSIVNEKWIVTAAHCVETGVKITVVAGEHNIEETEHTEQKRNVIRIIPHHNYNAAINKYNHDIALLELDEPLVLNSYVTPICIADKEYTNIFLKFGSGYVSGWGRVFHKGYSALVLQYLRVPLVDRATCLESTKFTIYNNMFCAGFHEGGRDSCQGDSGGPHVTEVEGTSFLTGIISWGEECAMKGKYGIYTKVSEYVNWIKEKAKLT | 517 | > 517 | – | – | – | – | – | – | – | – | –
FIXa-R318Y/R338E/N346D/R403E/E410N (protein) chain 1: YNSGKLEEFVQGNLERECMEEKCSFEEAREVFENTERTTEFWKQYVDGDQCESNPCLNGGSCKDDINSYECWCPFGFEGKNCELDVTCNIKNGRCEQFCKNSADNKVVCSCTEGYRLAENQKSCEPAVPFPCGRVSVSQTSKLTR chain 2: VVGGEDAKPGQFPWQVVLNGKVDAFCGGSIVNEKWIVTAAHCVETGVKITVVAGEHNIEETEHTEQKRNVIRIIPHHNYNAAINKYNHDIALLELDEPLVLNSYVTPICIADKEYTNIFLKFGSGYVSGWGRVFHKGYSALVLQYLRVPLVDRATCLESTKFTIYDNMFCAGFHEGGRDSCQGDSGGPHVTEVEGTSFLTGIISWGEECAMKGKYGIYTKVSEYVNWIKNKTKLT | 517 | > 517 | – | – | – | – | – | – | 0.0777 | 2.5 | –
FIXa Y155F/K228N/K247N/N249S (protein) chain 1: YNSGKLEEFVQGNLERECMEEKCSFEEAREVFENTERTTEFWKQYVDGDQCESNPCLNGGSCKDDINSYECWCPFGFEGKNCELDVTCNIKNGRCEQFCKNSADNKVVCSCTEGYRLAENQKSCEPAVPFPCGRVSVSQTSKLTR chain 2: VVGGEDAKPGQFPWQVVLNGKVDAFCGGSIVNEKWIVTAAHCVETGVNITVVAGEHNIEETEHTEQNRSVIRIIPHHNYNAAINKYNHDIALLELDEPLVLNSYVTPICIADKEYTNIFLKFGSGYVSGWGRVFHKGRSALVLQYLRVPLVDRATCLRSTKFTIYNNMFCAGFHEGGRDSCQGDSGGPHVTEVEGTSFLTGIISWGEECAMKGKYGIYTKVSRYVNWIKEKTKLT | – | – | 115 | – | 5.3e+07 | – | – | – | – | – | 0.0792
FIXa K228N/K247N/N249S/R318Y/R338E/R403E/E410N (protein) chain 1: YNSGKLEEFVQGNLERECMEEKCSFEEAREVFENTERTTEFWKQYVDGDQCESNPCLNGGSCKDDINSYECWCPFGFEGKNCELDVTCNIKNGRCEQFCKNSADNKVVCSCTEGYRLAENQKSCEPAVPFPCGRVSVSQTSKLTR chain 2: VVGGEDAKPGQFPWQVVLNGKVDAFCGGSIVNEKWIVTAAHCVETGVNITVVAGEHNIEETEHTEQNRSVIRIIPHHNYNAAINKYNHDIALLELDEPLVLNSYVTPICIADKEYTNIFLKFGSGYVSGWGRVFHKGYSALVLQYLRVPLVDRATCLESTKFTIYNNMFCAGFHEGGRDSCQGDSGGPHVTEVEGTSFLTGIISWGEECAMKGKYGIYTKVSEYVNWIKNKTKLT | – | – | 352 | – | 1.6e+08 | – | – | – | – | – | 0.0497
FIXa-D104N/K106S/I251S/R318Y/R338E/R403E/E410N (protein) chain 1: YNSGKLEEFVQGNLERECMEEKCSFEEAREVFENTERTTEFWKQYVDGDQCESNPCLNGGSCKDDINSYECWCPFGFEGKNCELDVTCNIKNGRCEQFCKNSANNSVVCSCTEGYRLAENQKSCEPAVPFPCGRVSVSQTSKLTR chain 2: VVGGEDAKPGQFPWQVVLNGKVDAFCGGSIVNEKWIVTAAHCVETGVKITVVAGEHNIEETEHTEQKRNVSRIIPHHNYNAAINKYNHDIALLELDEPLVLNSYVTPICIADKEYTNIFLKFGSGYVSGWGRVFHKGYSALVLQYLRVPLVDRATCLESTKFTIYNNMFCAGFHEGGRDSCQGDSGGPHVTEVEGTSFLTGIISWGEECAMKGKYGIYTKVSEYVNWIKNKTKLT | 517 | > 517 | – | – | – | 263 | 5.5 | 1.2e+08 | – | – | –
FIXa-K228N/R318Y/R338E/R403E/E410N (protein) chain 1: YNSGKLEEFVQGNLERECMEEKCSFEEAREVFENTERTTEFWKQYVDGDQCESNPCLNGGSCKDDINSYECWCPFGFEGKNCELDVTCNIKNGRCEQFCKNSADNKVVCSCTEGYRLAENQKSCEPAVPFPCGRVSVSQTSKLTR chain 2: VVGGEDAKPGQFPWQVVLNGKVDAFCGGSIVNEKWIVTAAHCVETGVNITVVAGEHNIEETEHTEQKRNVIRIIPHHNYNAAINKYNHDIALLELDEPLVLNSYVTPICIADKEYTNIFLKFGSGYVSGWGRVFHKGYSALVLQYLRVPLVDRATCLESTKFTIYNNMFCAGFHEGGRDSCQGDSGGPHVTEVEGTSFLTGIISWGEECAMKGKYGIYTKVSEYVNWIKNKTKLT | 517 | > 517 | 349 | 0.0361 | 1.6e+08 | – | – | – | – | – | –
FIXa D104N/K106S/K228N/K247N/N249S/R318Y/R338E/R403E/E410N (protein) chain 1: YNSGKLEEFVQGNLERECMEEKCSFEEAREVFENTERTTEFWKQYVDGDQCESNPCLNGGSCKDDINSYECWCPFGFEGKNCELDVTCNIKNGRCEQFCKNSANNSVVCSCTEGYRLAENQKSCEPAVPFPCGRVSVSQTSKLTR chain 2: VVGGEDAKPGQFPWQVVLNGKVDAFCGGSIVNEKWIVTAAHCVETGVNITVVAGEHNIEETEHTEQNRSVIRIIPHHNYNAAINKYNHDIALLELDEPLVLNSYVTPICIADKEYTNIFLKFGSGYVSGWGRVFHKGYSALVLQYLRVPLVDRATCLESTKFTIYNNMFCAGFHEGGRDSCQGDSGGPHVTEVEGTSFLTGIISWGEECAMKGKYGIYTKVSEYVNWIKNKTKLT | – | – | 239 | – | 1.1e+08 | – | – | – | – | – | 0.0533
FIXa-D85N/K228N/R318Y/R338E/R403E/E410N (protein) chain 1: YNSGKLEEFVQGNLERECMEEKCSFEEAREVFENTERTTEFWKQYVDGDQCESNPCLNGGSCKDDINSYECWCPFGFEGKNCELNVTCNIKNGRCEQFCKNSADNKVVCSCTEGYRLAENQKSCEPAVPFPCGRVSVSQTSKLTR chain 2: VVGGEDAKPGQFPWQVVLNGKVDAFCGGSIVNEKWIVTAAHCVETGVNITVVAGEHNIEETEHTEQKRNVIRIIPHHNYNAAINKYNHDIALLELDEPLVLNSYVTPICIADKEYTNIFLKFGSGYVSGWGRVFHKGYSALVLQYLRVPLVDRATCLESTKFTIYNNMFCAGFHEGGRDSCQGDSGGPHVTEVEGTSFLTGIISWGEECAMKGKYGIYTKVSEYVNWIKNKTKLT | 517 | > 517 | 346 | 0.0393 | 1.6e+08 | 336 | 6 | 1.6e+08 | – | – | –
